In patent US12156889B2, “Methods of administering mesenchymal stem cells activated by cytokines for enhancing immunosuppression” (Rutgers, The State University of New Jersey, priority 2012, dated 2024):

What was measured:
MSCs [1] = test: Messenger RNA decay assay in MSCs after actinomycin D; assay type: cell-based, mouse
Method: FIGS. 8A and 8B. IL-17A prevented the decay of iNOS mRNA, (FIG. 8A) the iNOS mRNA stability was measured at different time points after actinomycin D treatment in IFNγ+TNFα and IFNγ+TNFα+IL-17A treatment groups. (FIG. 8B) iNOS expression enhancing effect of IL-17A at different times after IFNγ and TNFα treatment.
FIGS. 13A and 13B. Wild-type (FIG. 13A) or […] (FIG. 13B) were treated with IFNγ and TNFα, with or without IL-17A (all cytokines supplemented at 10 ng/ml), for 6 hr, and then actinomycin D (5 μg/ml) was added to stop transcription. At the indicated time points, mRNA levels were assayed by quantitative RT-PCR, taking the expression level at the time of actinomycin.D addition as 100%. mRNA expression values are means±SD of three wells from a representative of three independent experiments.
Messenger RNA decay assays-Messenger RNA decay assays were performed essentially. MSCs were incubated with cytokine combinations for 6 hr. Actinomycin D (Act.D) was added into the medium at a final concentration of 5 μg/ml to stop transcription. At various time points after addition of Act.D, cells were harvested for extraction of total RNA.
Levels of iNOS, CXCL1, CCL2, CXCL10 and IL-6 mRNAs were measured at each time point by quantitative RT-PCR and normalized to levels of β-actin mRNA. Percentages of mRNA remaining for each time point were plotted versus time after Act.D addition. First order decay constants, k, were determined by nonlinear regression. The associated mRNA half-lives, t1/2, were calculated with the equation t1/2=ln2/k.

MSCs [2] = test: Gene expression in cytokine-treated MSCs (quantitative RT-PCR, Western Blot); assay type: cell-based, mouse
Method: FIG. 6. IL-17A greatly enhances inflammatory cytokine-induced iNOS expression in mouse BM-MSCs at both mRNA and protein levels. BM-MSCs were treated with the indicated cytokines. The iNOS gene expression was measured by real-time PCR.
FIGS. 10A, 10B, 10C, 10D and 10E. (FIGS. 10A and 10C). MSCs were cultured with different combinations of inflammatory cytokines IFNγ, TNFα, IL-17A (10 ng/ml) for 12 hr, and then cells were harvested for RNA extraction. The mRNA expression levels of inflammatory molecules iNOS, IL-6, CXCL1 (FIG. 10A) and chemokines CCL2, CCL5, CXCL9, CXCL10 (FIG. 10C) were detected by quantitative RT-PCR. (FIG. 10B). MSCs were cultured with different combinations of inflammatory cytokines IFNγ, TNFα, IL-17A (10 ng/ml) for 24 hr, and the protein level of iNOS was detected by Western Blot. (FIG. 10D). MSCs were supplemented with Sup-CD3 or Sup-CD3 pretreated with antibodies against IL-17A, and cells were collected for RNA extraction after 12 hr. The expression of iNOS, IL-6, CXCL1, CCL2, CCL5, CXCL9 and CXCL10 were measured by quantitative RT-PCR. Sup-CD3: supernatant from splenocytes activated by anti-CD3 and anti-CD28. (FIG. 10E). MSCs were treated with Sup-CD3 or Sup-CD3 pretreated with antibodies against IL-17A, and the protein level of iNOS was assessed by Western Blot after 24 hr. mRNA expression values are means±SEM of three wells from a representative of three independent experiments. Western Blot data is from a representative of three independent experiments.
FIGS. 11A, 11B, 11C and 11D. (FIG. 11A) MSCs with Act1 knockdown or control were treated with IL-17A for different time and the phosphorylation levels of IκBα, ERK, p65, JNK were assessed by Western Blot. (FIG. 11B) MSCs with Act1 knockdown or control were treated with IFNγ and TNFα with or without IL-17A (all cytokines supplemented at 5 ng/ml) the protein levels of iNOS and Act1 were assessed by Western Blot. (FIG. 11C) MSCs (Act1 knockdown or control) were treated with different cytokines 12 hr, and iNOS expression was measured by quantitative RT-PCR. mRNA expression values are means±SEM. (FIG. 11D) MSCs (Act1 knockdown or control) were first treated with IFNγ and TNFα with or without IL-17A (all cytokines supplemented at 5 ng/ml) for 12 hr, and then cocultured with T cell hybridoma A1.1 cells at a ratio of 1:10 for 12 hr. T cell proliferation was measured by 3H-Tdr incorporation, taking the proliferation level of A1.1 alone as 100%.
FIGS. 12A and 12B. (FIG. 12A). WT MSCs or auf1^−/− MSCs were treated with IFNγ and TNFα, or together with IL-17A (all cytokines supplemented at 10 ng/ml) for 12 hr, and iNOS, IL-6 and CXCL1 expression was measured by quantitative RT-PCR. mRNA expression values are means±SEM of three wells from a representative of three independent experiments. (FIG. 12B). WT MSCs were treated with IFNγ and TNFα (10 ng/ml), or together with different concentrations of IL-17A; auf1^−/−-MSCs were treated with IFNγ and TNFα (10 ng/ml), or together with 10 ng/ml of IL-17A. After 24 hr, cells were harvested for detection of iNOS by Western Blot. Western blot is a representative of three independent experiments.
RNA isolation and gene expression assay-Total RNA was isolated with the RNAprep Pure Cell/Bacteria Kit. First-strand cDNA synthesis was performed with a cDNA synthesis kit. The levels of mRNAs were measured by quantitative RT-PCR (7900 HT; Applied Biosystems, Foster City, CA) with SYBR Green Master Mix and normalized to the level of β-actin mRNA. Sequences of forward and reverse primer pairs are as follows:
Western blotting analysis-Cells were washed twice with ice-cold PBS, harvested and lysed in the RIPA buffer (Millipore, Temecular, CA) containing a cocktail of protease inhibitors (Roche, Natley, NJ) and PMSF (Sigma) for 30 min on ice. Lysates were clarified by centrifugation at 16,000 g for 15 minutes. Protein concentration of the supernatant was determined by the Bradford assay (Bio-Rad, Hercules, CA). […]

[3] = together with IFNγ and TNFα, 10 ng/ml, 12 hr

B1: IL-17A: recombinant mouse interleukin 17A (protein)
chain: AAIIPQSSACPNTEAKDFLQNVKVNLKVFNSLGAKVSSRRPSDYLNRSTSPWTLHRNEDPDRYPSVIWEAQCRHQRCVNAEGKLDHHMNSVLIQQEILVLKREPESCPFTFRVEKMLVGVGCTCVASIVRQAA
- half-lives of iNOS and IL-6 mRNAs in AUF1 knockout MSCs (MSCs [1]; added to IFNγ+TNFα): no effect
- stabilization of CXCL1 mRNA in AUF1 knockout MSCs (MSCs [1]; added to IFNγ+TNFα): at least twofold
- stabilization of iNOS, IL-6, and CXCL1 mRNAs in wild-type MSCs (MSCs [1]; added to IFNγ+TNFα): twofold stabilization
- iNOS mRNA stability (MSCs [1]; supplement to IFNγ+TNFα, within the time points tested): completely protected
- IFNγ+TNFα induced iNOS expression in Act1 knockdown MSCs (MSCs [2]; 5 ng/ml): could not upregulate
- expression of CCL5, CCL2, CXCL9, CXCL10 (MSCs [2]; addition to IFNγ and TNFα, 10 ng/ml, 12 hr): unaffected
- expression of iNOS at mRNA and protein levels in BM-MSCs (MSCs [2]; in the presence of IFNγ and TNFα): greatly enhanced
- iNOS, IL-6, and CXCL1 mRNAs in wild-type MSCs (MSCs [2]; [3]): significant increases
- increase of iNOS, IL-6, and CXCL1 mRNA abundance in auf1−/− MSCs (MSCs [2]; [3]): less than twofold
- IL-17A induction of iNOS expression in MSCs with AUF1 knocked down with siRNA (MSCs [2]; with IFNγ+TNFα): largely abrogated
- iNOS expression in wild type MSCs (MSCs [2]; with IFNγ+TNFα): strikingly induced
